Results taken from patent publication US8729012, “Controllable assembly and disassembly of nanoparticle systems via protein and DNA agents” (Brookhaven Science Associates, LLC).

How the values were obtained:
YieF = target: T1, YieF (UniProt P0AGE6 P0AGE6:1-188); experiment: negative control, no aggregation by DLS (2.5 uM) or UV-vis (15 uM); conditions: tags: polyhistidine
T1 sequence: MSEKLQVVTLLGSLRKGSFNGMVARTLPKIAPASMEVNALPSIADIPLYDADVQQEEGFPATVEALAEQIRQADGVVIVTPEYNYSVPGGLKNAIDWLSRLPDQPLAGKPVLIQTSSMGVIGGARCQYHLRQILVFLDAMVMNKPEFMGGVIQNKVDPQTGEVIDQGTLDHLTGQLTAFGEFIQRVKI
Procedure: (§1) The SP band is associated with isolated Au and assembled nanostructures. After adding increased g5p concentrations, the SP band at 525 nm of isolated ssDNA-Au was red-shifted with band broadening, indicative of either a decrease in interparticle distances or an increase of aggregate size (FIG. 7B). The higher extinction intensity observed over 10 μM g5p is due to a […] of the solution's turbidity resulting from the formation of larger aggregates. […] The sizes and morphologies of the g5p-mediated ssDNA-Au assemblies were studied using transmission electron microscopy (TEM) (FIG. 7C). […] Polyhistidine-tagged YieF protein (MW=20 KDa) was used as a negative control, for which no aggregation of particles was observed during DLS and UV-vis studies (FIGS. 8A and 8B).
(§2) The DNA for the binding study was obtained by annealing of two ssDNA with sequences, 5'-GACCACATACCGCAC-CATC(T)$32$CTGCTACGAGACTTC-3' (SEQ ID NO. 7) and 5'-(T)$32$GATGGTGCGGTATGTGGTC-3' (SEQ ID NO. 8), respectively. The annealed DNA (1 µM) was incubated with g5p at 37° C. for 10 minutes. […] Relative intensities of the DNA bands were analyzed after ethidium bromide staining Characterization UV-Visible spectra were obtained using a PerkinElmer Lambda 35 spectrometer. DLS was measured using a Malvern Zetasizer ZS instrument that is equipped with a 633 nm laser and a backscattering detector at 173°. […]

gene 5 protein (g5p) [1] = target: T2, gene 5 protein (g5p) (bacteriophage M13, UniProt P69544 P69544:1-87); experiment: g5p-dependent nanoparticle assembly by DLS, UV-vis, TEM; 10 mM Tris-HCl pH 7.44, 200 mM NaCl; conditions: tags: His-tag (pET-30b, expressed in E. coli BL21-DE3; gene from NEB M13); chain copies: 2 inferred (homodimer)
T2 sequence: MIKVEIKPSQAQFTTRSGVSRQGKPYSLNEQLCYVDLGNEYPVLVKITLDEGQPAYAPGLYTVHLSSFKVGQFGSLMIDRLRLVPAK
Procedure: as §1, §2

gene 5 protein (g5p) [2] = target: T2, gene 5 protein (g5p); experiment: EMSA; three sequential stages: anti-parallel ssDNA region shifted at 10 uM g5p, then ssDNA tail, then dsDNA over 35 uM; 1 uM DNA, 10 mM Tris-HCl pH 7.4, 200 mM NaCl; conditions: tags: His-tag (pET-30b, expressed in E. coli BL21-DE3; gene from NEB M13); chain copies: 2 inferred (homodimer); 19 bp duplex, two anti-parallel T32 single strands, 3' ssDNA tail of 15 nt
Procedure: To study the distinct binding properties of g5p and its preferential DNA topology, an exemplary DNA structure with three distinct regions has been designed: a 19 base paired double-stranded DNA (dsDNA) region, followed by a 32 nucleotide anti-parallel poly-T ssDNA region, and a 3' extended ssDNA tail of 15 nucleotides. The DNA structure ([…]) was titrated with g5p (in 10 mM Tris-HCl, pH=7.4, 200 mM NaCl), and g5p binding was studied using the electrophoretic mobility shift assay. […] Since g5p has a much lower affinity to dsDNA than to ssDNA at high salt concentration, the following order of occupancy is hypothesized: binding to the anti-parallel ssDNA region with a large shift of the DNA band at 10 μM g5p, followed by binding to the ssDNA tail, and finally to dsDNA at g5p concentrations over 35 μM. Thus, g5p binds to ssDNA regions before it binds to the dsDNA region, and its binding affinity for the anti-parallel region is slightly higher than for the ssDNA tail. […] By comparing the intensity of the band in the presence of 30 μM g5p to the band under control conditions without g5p, the hybridization efficiency for C-ssDNA to the g5p-complexed ssDNA tail was determined to be approximately 82%, indicating effective DNA hybridization without significant inhibition by g5p. […]

gene 5 protein (g5p) [3] = target: T2, gene 5 protein (g5p); experiment: EMSA; C-ssDNA added to the complex; 20 and 30 uM g5p shifts collapse to one band of higher mobility (anti-parallel region bound); tail hybridization about 82% at 30 uM g5p; conditions: tags: His-tag (pET-30b, expressed in E. coli BL21-DE3; gene from NEB M13); chain copies: 2 inferred (homodimer); 19 bp duplex, anti-parallel T32 strands, tail hybridized as 15 bp duplex
Procedure: Since g5p has a much lower affinity to dsDNA than to ssDNA at high salt concentration, the following order of occupancy is hypothesized: binding to the anti-parallel ssDNA region with a large shift of the DNA band at 10 μM g5p, followed by binding to the ssDNA tail, and finally to dsDNA at g5p concentrations over 35 μM. Thus, g5p binds to ssDNA regions before it binds to the dsDNA region, and its binding affinity for the anti-parallel region is slightly higher than for the ssDNA tail. To study the effect of g5p association on forming dsDNA heteroduplexes, and confirm the proposed binding order to the ssDNA regions, an equal amount (1 μM) of C-ssDNA that can hybridize to the ssDNA tail was added. […] Smearing of the band after C-ssDNA addition at 45 μM g5p supports g5p binding to dsDNA at this concentration. […]
The DNA for the binding study was obtained by annealing of two ssDNA with sequences, 5'-GACCACATACCGCAC-CATC(T)$32$CTGCTACGAGACTTC-3' (SEQ ID NO. 7) and 5'-(T)$32$GATGGTGCGGTATGTGGTC-3' (SEQ ID NO. 8), respectively. […] Relative intensities of the DNA bands were analyzed after ethidium bromide staining Characterization UV-Visible spectra were obtained using a PerkinElmer Lambda 35 spectrometer. DLS was measured using a Malvern Zetasizer ZS instrument that is equipped with a 633 nm laser and a backscattering detector at 173°.

TTTTTTTTTTTTTTTTAACCTAACCTTCAT (ssDNA, 5'-HS-C3H6, about 50 copies per gold nanoparticle) [ssDNA on gold nanoparticles (ssDNA-Au)]
binding result (YieF): no binding
binding result (gene 5 protein (g5p) [1]): binds

B1: annealed 19 bp dsDNA / anti-parallel poly-T32 / 15 nt ssDNA tail (structured_DNA)
DNA 1: GACCACATACCGCACCATCTTTTTTTTTTTTTTTTTTTTTTTTTTTTTTTTCTGCTACGAGACTTC
DNA 2: TTTTTTTTTTTTTTTTTTTTTTTTTTTTTTTTGATGGTGCGGTATGTGGTC
binding result (gene 5 protein (g5p) [2]): binds

B2: annealed DNA with tail hybridized to C-ssDNA (structured_DNA)
DNA 1: B1 DNA 1
DNA 2: B1 DNA 2
DNA 3: GAAGTCTCGTAGCAG
binding result (gene 5 protein (g5p) [3]): binds
